This is an account of results in patent US20130330343A1 (AbbVie / Abbott, published 2013).

T1: hRGMc expressed in 293HEK cells (human, UniProt Q6ZVN8 36-400)
T1 sequence: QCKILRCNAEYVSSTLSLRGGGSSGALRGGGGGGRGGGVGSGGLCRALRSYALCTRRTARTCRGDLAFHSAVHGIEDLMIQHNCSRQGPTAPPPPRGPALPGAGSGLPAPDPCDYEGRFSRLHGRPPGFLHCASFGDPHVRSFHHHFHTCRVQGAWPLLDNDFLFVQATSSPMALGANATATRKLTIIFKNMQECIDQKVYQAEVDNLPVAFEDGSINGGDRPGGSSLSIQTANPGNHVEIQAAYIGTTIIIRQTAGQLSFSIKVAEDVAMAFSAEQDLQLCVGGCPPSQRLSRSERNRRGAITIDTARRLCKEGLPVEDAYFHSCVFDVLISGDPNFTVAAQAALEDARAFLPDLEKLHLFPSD

T2: Rat RGMa-His (rat) (UniProt D4A188)
T2 sequence: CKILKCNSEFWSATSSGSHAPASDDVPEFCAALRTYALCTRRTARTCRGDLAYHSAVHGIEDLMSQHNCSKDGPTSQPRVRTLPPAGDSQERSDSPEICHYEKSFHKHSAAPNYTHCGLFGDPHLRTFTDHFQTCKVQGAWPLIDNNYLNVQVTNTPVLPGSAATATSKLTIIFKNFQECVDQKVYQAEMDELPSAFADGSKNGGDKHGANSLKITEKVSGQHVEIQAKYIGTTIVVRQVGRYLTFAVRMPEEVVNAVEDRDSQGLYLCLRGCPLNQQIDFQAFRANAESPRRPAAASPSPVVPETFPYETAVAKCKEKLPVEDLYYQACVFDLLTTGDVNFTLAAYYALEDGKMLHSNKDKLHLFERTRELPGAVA

T3: hRGMa-His (human, UniProt Q96B86 48-422, limits assumed)
T3 construct: not shown: His tag
T3 sequence (looked up): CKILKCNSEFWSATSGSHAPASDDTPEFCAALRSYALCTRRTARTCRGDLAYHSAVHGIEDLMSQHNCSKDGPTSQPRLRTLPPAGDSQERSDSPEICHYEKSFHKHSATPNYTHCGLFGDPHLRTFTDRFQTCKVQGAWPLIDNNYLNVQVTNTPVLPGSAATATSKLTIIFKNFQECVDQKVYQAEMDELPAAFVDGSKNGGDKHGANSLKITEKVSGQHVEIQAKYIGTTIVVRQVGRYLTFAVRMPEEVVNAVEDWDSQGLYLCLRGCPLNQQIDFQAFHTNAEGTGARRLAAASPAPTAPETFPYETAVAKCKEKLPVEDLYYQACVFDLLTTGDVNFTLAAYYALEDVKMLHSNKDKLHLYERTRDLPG

T4: R&D hRGMc-His (human, UniProt Q6ZVN8 36-400)
T4 construct: Bought (R&D); not shown: His tag
T4 sequence: T1 sequence

T5: Rat RGMa (rat) (UniProt D4A188)
T5 sequence: T2 sequence

T6: human RGMa (human, UniProt Q96B86 48-422, limits assumed)
T6 construct: also called hRGMa; h RGMa
T6 sequence (looked up): T3 sequence (looked up)

T7: human RGMc (human, UniProt Q6ZVN8 36-400, limits assumed)
T7 construct: also called hRGMc
T7 sequence: T1 sequence

B1: humanized antibody 5F9.23 (antibody, V domains shown)
VH: EVQLVESGGGLVQPGGSLRLSCAASGFTFSNYGMNWIRQAPGKGLEWIGMIYYDSSEKHYADSVKGRFTISRDNSKNTLYLQMNSLRAEDTAVYYCAKGTTPDYWGQGTMVTVSS
VL: DVVLTQSPLSLPVTLGQPASISCRSSQSLEYSDGYTFLEWFQQRPGQSPRLLIYEVSNRFSGVPDRFSGSGSGTDFTLKISRVEAEDVGVYYCFQATHDPLTFGQGTKLEIKR
notes: also called h5F9.23; H5F9.23
B2: RGMA-h5F9Vh7a/pJP291 hIgG1/K mut (antibody, V domains shown)
VH: B1 VH
VL: DVVLTQSPLSLPVTLGQPASISCRSSQSLESSDGDTFLEWFQQRPGQSPRLLIYDVSTRFSGVPDRFSGSGSGTDFTLKISRVEAEDVGVYYCFQVTHDPVTFGQGTKLEIK
notes: Tested as IgG; also called h5F9.AM4; H5F9AM.4
B3: RGMA-h5F9pJP302/pJP303 hIgG1/K mut (antibody, V domains shown)
VH: B1 VH with I37V, I48V, G49S
VL: B2 VL with S31D, D35G, T58S, V96A, V101L, T102S
notes: Tested as IgG; also called h5F9.AM11; H5F9AM.11
B4: RGMA-h5F9pJP297/pJP298 hIgG1/K mut (antibody, V domains shown)
VH: B1 VH
VL: B2 VL with S31E, D35Y, E39H, D55E, V96A, V101L
notes: Tested as IgG; also called h5F9.AM8; H5F9AM.8
B5: RGMA-h5F9pJP297/pJP299 hIgG1/K mut (antibody, V domains shown)
VH: B1 VH with L11V, G16R, I37V, I48V, G49A, K98R
VL: B2 VL with E30A, S31D, E39H, D55A, T58H, V96A
notes: Tested as IgG; also called h5F9.AM9; H5F9AM.9

Substitutions are numbered along the chain they refer to.

One assay has as its target T1, hRGMc expressed in 293HEK cells. As to the kind of experiment: cell-based or functional assay.
In the case of B1, the “IC50, RGMc-mediated BMP reporter (BRE-luc) assay in 293HEK cells” value was found to be 17 nM.

For the next assay the target is unchanged. Nature of the assay: cell-based or functional assay. The source holds these as a separate data set.
On to B2, for which the “IC50 (inhibition of RGMc-mediated BRE-luciferase activity, RLU, in 293HEK cells transfected with hRGMc)” value amounted to 0.31 nM.
On the same count and under the same terms, as for B1, the figure is 17.1 nM; as for B3, 0.51 nM.
B4: the “IC50 (inhibition of RGMc-mediated BRE-luciferase activity, RLU, in 293HEK cells transfected with hRGMc)” value worked out at 0.38 nM.
The same measure, in the same setting: as for B5, the figure is 1.36 nM.

Another assay concerns the target T2, Rat RGMa-His (rat). Nature of the assay: Affinity KD (nM); (BIAcore per Example 4). Background: Surface plasmon resonance follows binding to a sensor surface in real time, without labels.
Usually Kd stands for the concentration at which binding is half-saturated. In the case of B2, the Kd is < 0.00094 nM.
B3 displayed a dissociation constant Kd of 0.074 nM.
Regarding B4, the Kd is < 0.0015 nM.
The molecule B5 registered a Kd of 0.31 nM.

The target in another assay is T3, hRGMa-His. Nature of the assay: Affinity KD (nM); (BIAcore per Example 4). How it is done: (§1) The potency data correlates with the affinity data (see Table 5). The affinity of h5F9.23 affinity matured Abs towards human RGMa, rat RGMa, and human RGMc were determined by BIAcore analysis (Table 5). Testing Abs were captured to the surface of a CM5 chip via anti-hIgG Fc Ab, and serially diluted antigens were injected. Association and dissociation rates were monitored for 5 and 10 min respectively. Sensorgrams were fitted by global analysis using the BIAevaluation 4.0.1 software for a 1:1 Langmuir binding model. The equilibrium dissociation constants (KD) were calculated from kinetic rate constants (off rate kd and on rate ka): KD=kd/ka.
On to B2, for which binding was characterised by a dissociation constant (Kd) of 0.015 nM.
Take B3: binding was put at a Kd of 0.11 nM.
For the molecule B4, binding was characterised by a dissociation constant (Kd) of 0.031 nM.
The same measure, in the same setting: with B5 the figure was 0.47 nM.

The next assay deals with T4, R&D hRGMc-His. Nature of the assay: Affinity KD (nM); (BIAcore per Example 4). How it is done: as §1
The molecule B2 returned a Kd of 0.12 nM.
B3 showed a Kd of 0.25 nM.
On the same count and under the same terms, as for B4, the figure is 0.08 nM; as for B5, 0.69 nM.

Another assay has as its target T5, Rat RGMa (rat). As to the kind of experiment: BIAcore; Ab captured via anti-hIgG Fc on CM5 chip, antigen injected; 1:1 Langmuir fit.
By koff is commonly meant a measure of how fast the partners let go of each other. The low end stands for a long-lived complex, the high end for a short-lived complex. A word on the kon: it is the second-order rate constant of association. A lower kon goes with slow association. For the molecule B2, the equilibrium dissociation constant (Kd) was < 0.00094 nM, the dissociation rate constant (koff) is < 1e-06 s⁻¹ and the kon was 1.1e+06 M⁻¹ s⁻¹.
For the molecule B1, the Kd was found to be 2.1 nM, the dissociation rate constant (koff) worked out at 0.0017 s⁻¹ and the on-rate (kon) is 830000 M⁻¹ s⁻¹.
In turn, B3 gave a dissociation constant (Kd) of 0.074 nM, a koff of 5.2e-05 s⁻¹ and an association rate constant (kon) of 700000 M⁻¹ s⁻¹.
For B4 the same measures were < 0.0015 nM, < 1e-06 s⁻¹ and 660000 M⁻¹ s⁻¹.
For B5, the equilibrium dissociation constant (Kd) was 0.31 nM, the koff came out at 0.00021 s⁻¹ and the kon is 680000 M⁻¹ s⁻¹.

A further assay has as its target T6, human RGMa. The description is as above. How it is done: as §1
As to B2, the affinity, expressed as Kd, was 0.015 nM; the off-rate (koff) was 2.2e-05 s⁻¹; the on-rate (kon) was found to be 1.4e+06 M⁻¹ s⁻¹.
B1 showed a Kd of 3.7 nM, a koff of 0.0022 s⁻¹ and a kon of 600000 M⁻¹ s⁻¹.
B3 yielded an equilibrium dissociation constant (Kd) of 0.11 nM, a koff of 9.9e-05 s⁻¹ and a kon of 930000 M⁻¹ s⁻¹.
For B4, in that order: 0.031 nM, 2.7e-05 s⁻¹ and 870000 M⁻¹ s⁻¹.
For the molecule B5, the equilibrium dissociation constant (Kd) worked out at 0.47 nM, the off-rate (koff) was found to be 0.0004 s⁻¹ and the kon amounted to 860000 M⁻¹ s⁻¹.

In another assay the target is T7, human RGMc. The description is as above. How it is done: as §1
In the case of B2, binding was characterised by a dissociation constant (Kd) of 0.13 nM, the koff is 0.00104 s⁻¹ and the kon was 7.85e+06 M⁻¹ s⁻¹.
Molecule B1 showed a Kd of 29 nM and an on-rate (kon) of 830000 M⁻¹ s⁻¹.
In the case of B3, the Kd is 0.285 nM, the off-rate constant (koff) stood at 0.0014 s⁻¹ and the on-rate (kon) worked out at 5.05e+06 M⁻¹ s⁻¹.
For B4 the same measures were 0.105 nM, 0.00039 s⁻¹ and 3.95e+06 M⁻¹ s⁻¹.
The molecule B5 yielded a Kd of 0.71 nM, an off-rate (koff) of 0.0107 s⁻¹ and an on-rate constant (kon) of 1.55e+07 M⁻¹ s⁻¹.
